From the supplement of paper PMC12764529
± gives the half width of the 95% confidence interval.

Experiments:
[1] = folding stability dG unfold from trypsin proteolysis; higher = more stable
Method: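 Folding stability of de novo designed mini-proteins (<80 aa, no Cys; designed by TrROS, TrMRF, ProteinMPNN and the joint model) was measured by cDNA display proteolysis with trypsin and chymotrypsin. Each protease was used at 11 concentrations in a threefold dilution series plus a no-protease condition. K50 was inferred by Bayesian fitting of sequencing counts, and dG unfold was derived against a sequence-predicted unfolded-state K50 (Tsuboyama et al. method). Sequences shown include variable-length N-terminal GS-type padding (SAGGSAGG...) inside a display construct carrying a PA tag. Rows were kept only if the AF2 dimer inter-PAE was >15, to exclude likely homo-oligomers.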

[2] = folding stability dG unfold (combined trypsin and chymotrypsin); higher = more stable
How it was run: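 Unfolding free energy was derived, per protease or combined, by relating Bayesian-fitted K50 values from sequencing counts to a sequence-predicted unfolded-state K50 and a shared folded-state K50. The underlying digests exposed cysteine-free mini-proteins under 80 residues, in a PA-tagged cDNA display construct, to trypsin and chymotrypsin at 11 threefold-diluted concentrations and to a no-protease condition. A filter kept only designs with AlphaFold2 dimer inter-PAE above 15.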

Row | Sequence | folding stability dG unfold [1] | folding stability dG unfold [2]
1 | SAGGPSAENLVEGDKVLLLIPLGDGPERRLELPLPDGRPVVVEVEPDRPGLITVTIPETGKPIVLPLSAGGS [r16_198_TrMRF] | -0.489 ± 0.086 kcal/mol | < -1 kcal/mol
2 | SAGGSAEEKAKAIKEELEKKGEVKKVTVTIEPTPENSTKVTVEIEKEPKPKPKEYKYTELPNGKKVILSAGG [r13_957_JUSTAS] | -0.416 ± 0.12 kcal/mol | < -1 kcal/mol
3 | SAGGSAEKPTATLRPVVLNYPEGPISRDPSGNVVNSPEELAKEVKEEILKKTGLPVEEIVVLVEPPSAGGSA [r15_415_JUSTAS] | -0.739 ± 0.061 kcal/mol | < -1 kcal/mol
4 | SAGGSAGGAEELAEELERALPEGEVTEVRVEVVELPEGEPEVVVTVRVKRDGKEVKELPVIRVPSAGGSAGG [r6_630_TrROS_Hall] | -0.492 ± 0.16 kcal/mol | -0.997 ± 0.44 kcal/mol
5 | SAGGSAGGAVPSYIKDIETIPETSALIVNAESEEIVKEFLEKLGLKIESKEVDEDKIILPAKIESAGGSAGG [r6_381_JUSTAS] | 0.774 ± 0.099 kcal/mol | 0.0269 ± 0.35 kcal/mol
6 | SAGGSAGGEKKYEVVEKKELTLEDIEKADEILVVGKDGKVFKSRDDVKAAAEKGEKITVYVVKKSAGGSAGG [r6_827_TrROS_Hall] | 0.0471 ± 0.46 kcal/mol | < -1 kcal/mol
7 | SAGGSAGGEPITPEEAREIADYFMEEHGAKEVEVKVDPNGGIIKIDVTHPNDGRKYEREIQIEKSAGGSAGG [r6_550_TrROS] | 0.142 ± 0.13 kcal/mol | < -1 kcal/mol
8 | SAGGSAGGMSISTEQEGGKITVTDSSPGTPIAELPPDVEKEVETPVIPPPPPLYRLFLPGTVLVSAGGSAGG [r6_40_JUSTAS] | -0.94 ± 0.48 kcal/mol | < -1 kcal/mol
9 | SAGGSAGGMTAEEVAEWIADEFMENHPNIEIKPVATEDGEVKIDIRHPNSGMTHTFKIPPGQPLSAGGSAGG [r6_446_TrROS] | -0.796 ± 0.19 kcal/mol | < -1 kcal/mol
10 | SAGGSAGGMVEHVVTVPPSQVEEVIEEAKPKPVVEVKVEKVPGRDEVVVTMKYEIPEEELLKKLSAGGSAGG [r6_273_JUSTAS] | -0.704 ± 0.084 kcal/mol | < -1 kcal/mol
11 | SAGGSAGGMVPITDLTVDSEEFVLPTGGVATRETITRPATGLVYEKVVFTPKPGVVEQREVALLSAGGSAGG [r6_895_JUSTAS] | -0.471 ± 0.12 kcal/mol | < -1 kcal/mol
12 | SAGGSAGGNPEDKERRYVRMPIKVTVPNPNGKKIKIPIYMPVGDPERMMPRAIKFARELAKKGLSAGGSAGG [r6_903_TrROS] | -0.301 ± 0.7 kcal/mol | < -1 kcal/mol
13 | SAGGSAGGPPDDVEPEEFTFRFGDKPIKVEILRVNPDNNNIMIKHESNGKPKTMMFPPEDLEKLSAGGSAGG [r6_421_TrROS] | -0.129 ± 0.29 kcal/mol | -0.0461 ± 0.25 kcal/mol
14 | SAGGSAGGPVTVVPVVTPADVPVLTTPGGAPARPASRPDLVRPVASTVTVTITPAPAAPTVTVLSAGGSAGG [r6_537_JUSTAS] | 0.857 ± 0.038 kcal/mol | 0.135 ± 0.12 kcal/mol
15 | SAGGSAGGPYMVMIRMPNNPQPIWFPPDEVKEALKEGDEKRIKFPGGGMEMTIRNVDDIEIMPPSAGGSAGG [r6_509_TrROS] | -0.793 ± 0.58 kcal/mol | < -1 kcal/mol
16 | SAGGSAGGSAALGDESLHRPVPVVSTSPVTTTTTLTLTPPNGVTVTESVTTTTTVYGSGAASAGGSAGGSAG [r3_380_JUSTAS] | 0.553 ± 0.025 kcal/mol | 0.172 ± 0.13 kcal/mol
17 | SAGGSAGGSADIELLGESVDPATGRSSKTFQAPGKIIVETTAPDGTKTTSVVDPNSNVTIPLSAGGSAGGSA [r18_230_JUSTAS] | -0.522 ± 0.11 kcal/mol | < -1 kcal/mol
18 | SAGGSAGGSAESIDAKVTPVALPSGPRYLIEVNNPAAPEIPKSVVEEELAKKYPKERVELLSAGGSAGGSAG [r3_226_JUSTAS] | -0.516 ± 0.1 kcal/mol | < -1 kcal/mol
19 | SAGGSAGGSAGEPIRVRIENPPGGQRKITIPTDDLQEKGITPKDIAKKLAREFGWPIEVWSAGGSAGGSAGG [r11_829_TrROS] | 0.257 ± 0.3 kcal/mol | < -1 kcal/mol
20 | SAGGSAGGSAGGDAILIEVESPEDAVEAARELAEKEFGIDPENFPINVVVDEPDGKALIASAGGSAGGSAGG [r7_387_TrMRF] | 0.743 ± 0.019 kcal/mol | -0.404 ± 0.25 kcal/mol
21 | SAGGSAGGSAGGDPVTVLSIKPEPGKLTVTTNTRADGSTTTTTVSPENPPNIKPGEPLSSAGGSAGGSAGGS [r10_834_JUSTAS] | 0.552 ± 0.04 kcal/mol | 0.109 ± 0.18 kcal/mol

Row | Sequence | folding stability dG unfold [1] | folding stability dG unfold [2]
22 | SAGGSAGGSAGGEVEVPKDASLVVTYPNGERKEVPVEDKVPVKGLPVYLLGPDGTLREIDSAGGSAGGSAGG [r7_54_TrMRF] | 0.294 ± 0.18 kcal/mol | < -1 kcal/mol
23 | SAGGSAGGSAGGFVEKYPDGVIVEKDPNNDSGTVKKVTTTKDPNTNKPTSKVTVTPISKLSAGGSAGGSAGG [r7_181_JUSTAS] | -0.844 ± 0.2 kcal/mol | < -1 kcal/mol
24 | SAGGSAGGSAGGGESAAPVVATTVSEEVFEEPGGTVIRRYTVTTPAATTTLSTEVLPPLLSAGGSAGGSAGG [r7_43_JUSTAS] | -0.25 ± 0.17 kcal/mol | < -1 kcal/mol
25 | SAGGSAGGSAGGGMTTVTIEVPPELSEEEVRRAAAELVAAGRPVPVTVERLPEDRVVVVTSAGGSAGGSAGG [r7_283_JUSTAS] | 0.68 ± 0.021 kcal/mol | -0.0348 ± 0.082 kcal/mol
26 | SAGGSAGGSAGGGPSVAPFEVTELLSVSYVPGPRRFVAVVRLPDPERLVVVPVEDLPPGQSAGGSAGGSAGG [r7_304_TrMRF] | -0.941 ± 0.41 kcal/mol | < -1 kcal/mol
27 | SAGGSAGGSAGGHIVIPNKRWYIQFPNGKPIGEHRFDTAEDIAKELPPNMRIVPPGDPISAGGSAGGSAGGS [r10_310_TrROS] | 0.281 ± 0.32 kcal/mol | < -1 kcal/mol
28 | SAGGSAGGSAGGHPVRVRITWPDGQQRTIPIPVDPENGQVTLEEIAKTISPEHGWKIEVFSAGGSAGGSAGG [r7_492_TrROS] | -0.107 ± 0.2 kcal/mol | -0.638 ± 0.51 kcal/mol
29 | SAGGSAGGSAGGITPEEIEKIREAPLPNGAPIKDVFVEGDYAVVLFETEPDLYLIVIPNKSAGGSAGGSAGG [r7_995_TrMRF] | -0.121 ± 0.12 kcal/mol | -0.907 ± 0.57 kcal/mol
30 | SAGGSAGGSAGGKITIVVSASSPEEAKRFVGELKALGPADIKVIVVPAPKPLPADDPRAKSAGGSAGGSAGG [r7_261_TrMRF] | -0.177 ± 0.21 kcal/mol | < -1 kcal/mol
31 | SAGGSAGGSAGGKKKVKVGNKEVEIVKEEEKEGKLIIKDKKTGKKIEISKEDLKKKKIKLSAGGSAGGSAGG [r7_391_TrROS_Hall] | -0.42 ± 0.52 kcal/mol | < -1 kcal/mol
32 | SAGGSAGGSAGGKKVKIKIEIPGMSKEEIEKLAKELEKKGIKVEKIEVKPLPKVEVFEKKSAGGSAGGSAGG [r7_906_TrROS_Hall] | -0.602 ± 0.27 kcal/mol | < -1 kcal/mol
33 | SAGGSAGGSAGGKRITIMFNTPEQIEELAENLGFDDIEVEPFPNEDGRPYVQVTIRLPPSAGGSAGGSAGGS [r10_494_TrROS] | -0.703 ± 0.15 kcal/mol | < -1 kcal/mol
34 | SAGGSAGGSAGGKVRVETDPERGYYKVKIRNPNNGRKIKVPVPMDDPKKAKKQAKELAKSAGGSAGGSAGGS [r10_1117_TrROS] | -0.863 ± 0.5 kcal/mol | < -1 kcal/mol
35 | SAGGSAGGSAGGLEVSIPGWTVTKTEPLPDDSVLSTATKKNGPKFLISISPDEVTISPESAGGSAGGSAGGS [r10_312_JUSTAS] | -0.394 ± 0.16 kcal/mol | < -1 kcal/mol
36 | SAGGSAGGSAGGLSPESFYTVEVYNKDGTKLGPAQVVSTGTGKVVIPIEPDVEIILNPSSAGGSAGGSAGGS [r10_1257_JUSTAS] | 0.346 ± 0.17 kcal/mol | -0.136 ± 0.21 kcal/mol
37 | SAGGSAGGSAGGMKTYSVEELRARLEEEGKEPTLEELASLPGAKVELNKETKEATIVLKPSAGGSAGGSAGG [r7_180_TrROS_Hall] | 0.044 ± 0.16 kcal/mol | < -1 kcal/mol
38 | SAGGSAGGSAGGMPIRVYRDPSNPDVVYVETPESTRDVSLEEVERLPVDEIRSAAEVAAESAGGSAGGSAGG [r17_88_JUSTAS] | 0.335 ± 0.021 kcal/mol | -0.206 ± 0.16 kcal/mol
39 | SAGGSAGGSAGGMTKISVNIVIYDPKNNTTKIIPITMSESEIKKVKEELVPKNMSAKILSAGGSAGGSAGGS [r10_397_JUSTAS] | 0.847 ± 0.12 kcal/mol | 0.191 ± 0.24 kcal/mol
40 | SAGGSAGGSAGGMVIEIDVPPSVPASEVKEKVKAELLKKGVPKDTEIKVIVKPKNPELLSAGGSAGGSAGGS [r10_746_JUSTAS] | -0.656 ± 0.2 kcal/mol | < -1 kcal/mol
41 | SAGGSAGGSAGGMYIATFKPPDGSEITVKLNPGEKVTIKLKDGTPAGVVSKKAVSPELLSAGGSAGGSAGGS [r10_422_JUSTAS] | -0.245 ± 0.17 kcal/mol | -0.361 ± 0.68 kcal/mol
42 | SAGGSAGGSAGGPKFKFEDVMVQRNPEPERAYVPITYEDPGKERPIMIPIPPNQTLDEISAGGSAGGSAGGS [r10_304_TrROS] | 0.0428 ± 0.068 kcal/mol | < -1 kcal/mol
